From PMC9394474 come the findings set out here.

This test addresses human hisTRIM7-PRYSPRY (human) (UniProt Q9C029). The test can be described thus: ITC. (Isothermal titration calorimetry measures the heat released or taken up as one component is titrated into another.)

In general, Kd refers to the free concentration of one partner at which half of the binding sites on the other are occupied at equilibrium, for simple one-to-one binding. The low end stands for higher affinity, the high end for lower affinity. In turn, ac-LLQ (peptide) returned a Kd of 39 µM.

The substance dipeptide LQ yielded a Kd of 200 µM.
